Test results from publication PMC9159911.

Tested on: SmpB (small protein B) (Aeromonas veronii)
Assay: MST
Conditions: […], pH 7.4), temperature not stated, binding buffer not stated

Substance	Kd
PompA C52AT (native ompA promoter fragment)	0.93 µM
PompA T52GC (CAT at +52 to TGC)	126 µM
